The record followed here is patent US20090136503A1 (BEIJING COTIMES BIOTECH, published 2009).

Experiment [1] concerns the target BSA (bovine serum albumin), negative control (bovine, UniProt P02769 25-607). Put plainly: ELISA: plate coated with BSA (control) at 1 µg/ml, HRP goat anti-mouse IgG, TMB.
The target in experiment [2] is T1, TRAIL-R3-Fc fusion protein (human, UniProt O14798 26-221, limits assumed).
T1 construct: The origin of the protein is not described; also called TRAIL-R3-Fc fusion antigen; not shown: human IgG1 Fc
T1 sequence (looked up): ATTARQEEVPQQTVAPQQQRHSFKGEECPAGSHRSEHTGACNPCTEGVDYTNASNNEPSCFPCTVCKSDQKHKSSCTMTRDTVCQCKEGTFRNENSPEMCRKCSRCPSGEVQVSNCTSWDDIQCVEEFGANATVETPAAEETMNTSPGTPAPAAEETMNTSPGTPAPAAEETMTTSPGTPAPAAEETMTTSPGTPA
Put plainly: ELISA: plate coated with TRAIL-R3-Fc at 1 µg/ml, HRP goat anti-mouse IgG, TMB. For orientation: An ELISA detects its analyte on a solid surface through an enzyme-linked reagent.

Experiment [3] concerns the target TRAIL-R1 on the surface of human tumor cells (human, UniProt O00220 24-468). Kind of experiment: cell-based or functional assay.
The target of experiment [4] is Human IgG1 (control antigen) (human). Put plainly: ELISA; human IgG1 captured on goat anti-human IgG, antibody at 2 µg/ml.
Experiment [5] deals with T2, TRAIL-R4-Fc fusion protein (human, UniProt Q9UBN6 56-211).
T2 construct: The origin of the protein is not described; also called TRAIL-R4-Fc fusion antigen; not shown: human IgG1 Fc
T2 sequence (looked up): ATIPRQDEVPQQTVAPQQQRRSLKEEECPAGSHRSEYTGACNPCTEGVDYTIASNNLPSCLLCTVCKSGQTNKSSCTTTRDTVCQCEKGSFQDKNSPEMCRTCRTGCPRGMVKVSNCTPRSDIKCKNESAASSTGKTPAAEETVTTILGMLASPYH
Kind of experiment: ELISA: plate coated with TRAIL-R4-Fc at 1 µg/ml, HRP goat anti-mouse IgG, TMB.

In experiment [6] the target is T3, TRAIL-R2 on the surface of human tumor cells (human, UniProt O14763 56-440).
T3 construct: whole, on cells; also called DR5; CD262
Put plainly: flow cytometry on Jurkat cells (said to express TRAIL-R2 only, not TRAIL-R1), PE goat anti-mouse IgG1. For orientation: In flow cytometry, cells or beads pass a laser one at a time.

Sequence of BSA (bovine serum albumin), negative control (P02769 25-607 limits assumed): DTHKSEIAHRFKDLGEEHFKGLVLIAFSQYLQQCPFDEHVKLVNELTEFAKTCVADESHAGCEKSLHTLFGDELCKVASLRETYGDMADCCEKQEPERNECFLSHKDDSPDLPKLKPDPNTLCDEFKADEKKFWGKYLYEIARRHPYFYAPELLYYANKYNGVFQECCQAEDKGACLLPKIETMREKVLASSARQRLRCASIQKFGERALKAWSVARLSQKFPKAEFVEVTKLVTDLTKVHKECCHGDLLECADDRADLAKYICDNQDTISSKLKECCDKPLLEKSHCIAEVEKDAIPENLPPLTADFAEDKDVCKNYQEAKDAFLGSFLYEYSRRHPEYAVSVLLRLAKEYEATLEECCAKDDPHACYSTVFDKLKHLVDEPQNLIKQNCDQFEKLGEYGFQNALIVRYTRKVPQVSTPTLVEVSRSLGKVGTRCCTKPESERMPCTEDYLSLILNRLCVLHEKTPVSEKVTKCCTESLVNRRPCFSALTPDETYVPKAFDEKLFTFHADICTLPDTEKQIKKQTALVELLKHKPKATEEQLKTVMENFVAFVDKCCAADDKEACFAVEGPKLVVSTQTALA

B1: CTB007 murine monoclonal antibody against TRAIL-R1 (hybridoma CGMCC 1733) (antibody, V domains shown)
VH: EVQLQQSGAELVKPGASVKLSCTASGFNIKDTYMHWVKQRPEQGLEWIGRIDPANGNTKYDPKFQGKATITADTSSNTAYLQLSSLTSEDTAVYYCAYYYVSNAWFTYWGQGTLVTVSA
VL: DIQMTQSPASLSVSVGETVTITCRASENIYSNLEWYQQKQGKSPQLLVYAATNLADGVPSRFSGSGSGTQYSLKINSLQSEDFGSYYCQHFWGTWTFGGGTKLEIK
notes: Murine monoclonal antibody; also called Anti-TRAIL-R1 (CTB007); CTB007-HRP
Consider B1, for which, in experiment [1], the binding result is reported as “no binding (tested: 1000 ng/ml)”. Besides, in experiment [2], the binding result is listed as “no binding (tested: 1000 ng/ml)”. In experiment [3], the “IC50 (ng/ml), killing of Carov 3 cells, ATPLite cell viability” value came to 29.5 ng/mL; the “IC50 (ng/ml), killing of Colo205 cells, ATPLite cell viability” value is 6.2 ng/mL; the “IC50 (ng/ml), killing of Du145 cells, ATPLite cell viability” value was 31.2 ng/mL; the “IC50 (ng/ml), killing of H-2122 cells, ATPLite cell viability” value is 25.4 ng/mL. In addition, in experiment [3], the “IC50 (ng/ml), killing of MDA231 cells, ATPLite cell viability” value was found to be 8.2 ng/mL and the “IC50 (ng/ml), killing of MIAcap cells, ATPLite cell viability” value was 9.5 ng/mL. The molecule further had an OD 450 nm/650 nm in experiment [4] of 0.026 OD. Also, the binding result in experiment [5] was “no binding (tested: 1000 ng/ml)”. For the same molecule, the binding result in experiment [6] is given as “no binding”.
